Experimental data as given in PMC3579926.
“And” between values parts separate entries of the source, which are not always exact repeats. Identical values can stand only once.

Columns and labels:
Test in all cases: SEC; Superdex 200 (10/300), 4°C, protein at 1 mg/mL, 20 mM HEPES-NaOH pH 7.5, 1.0 M NaCl, 20 µM ZnCl2, 5 mM β-mercaptoethanol; dimer, and dimer to tetramer
[1] = target: RSV IN(1–270)•C23S (Rous sarcoma virus (Prague A strain))
[2] = target: RSV IN(1–270) (Rous sarcoma virus (Prague A strain))
[3] = target: RSV IN(49–270) (Rous sarcoma virus (Prague A strain))

Substance RSV IN(1–270)•C23S (domain or fragment) has a stoichiometry N [1] of 2.
In the case of RSV IN(1–270) (domain or fragment), the stoichiometry N [2] is reported as 2 and 4.
With RSV IN(49–270) (domain or fragment) the stoichiometry N [3] was 2.
